{"source": "IntAct's records for PubMed 25910212", "parents": {"B1": {"name": "ATP synthase mitochondrial F1 complex assembly factor 2 (Homo sapiens), Q8N5M1 (parent)", "chain": "MWRSCLRLRDGGRRLLNRPAGGPSASMSPGPTIPSPARAYAPPTERKRFYQNVSITQGEGGFEINLDHRKLKTPQAKLFTVPSEALAIAVATEWDSQQDTIKYYTMHLTTLCNTSLDNPTQRNKDQLIRAAVKFLDTDTICYRVEEPETLVELQRNEWDPIIEWAEKRYGVEISSSTSIMGPSIPAKTREVLVSHLASYNTWALQGIEFVAAQLKSMVLTLGLIDLRLTVEQAVLLSRLEEEYQIQKWGNIEWAHDYELQELRARTAAGTLFIHLCSESTTVKHKLLKE", "partner": "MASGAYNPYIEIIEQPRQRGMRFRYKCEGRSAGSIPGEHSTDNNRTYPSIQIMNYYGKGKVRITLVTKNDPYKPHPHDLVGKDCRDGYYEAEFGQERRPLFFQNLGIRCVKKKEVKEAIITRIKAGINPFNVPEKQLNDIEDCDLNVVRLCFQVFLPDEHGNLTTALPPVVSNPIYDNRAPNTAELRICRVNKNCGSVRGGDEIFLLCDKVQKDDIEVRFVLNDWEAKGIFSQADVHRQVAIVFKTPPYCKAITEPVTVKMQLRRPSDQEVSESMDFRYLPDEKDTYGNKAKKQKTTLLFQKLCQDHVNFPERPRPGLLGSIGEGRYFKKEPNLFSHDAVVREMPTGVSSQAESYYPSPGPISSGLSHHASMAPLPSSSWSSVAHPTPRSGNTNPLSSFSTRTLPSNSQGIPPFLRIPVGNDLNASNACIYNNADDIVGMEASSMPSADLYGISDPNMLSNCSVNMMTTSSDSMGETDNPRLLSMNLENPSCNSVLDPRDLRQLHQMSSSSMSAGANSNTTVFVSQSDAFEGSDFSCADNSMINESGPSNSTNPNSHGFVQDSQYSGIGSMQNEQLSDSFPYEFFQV"}, "B2": {"name": "Cyclin-dependent kinase 4 inhibitor C (Homo sapiens), P42773 (parent)", "chain": "MAEPWGNELASAAARGDLEQLTSLLQNNVNVNAQNGFGRTALQVMKLGNPEIARRLLLRGANPDLKDRTGFAVIHDAARAGFLDTLQTLLEFQADVNIEDNEGNLPLHLAAKEGHLRVVEFLVKHTASNVGHRNHKGDTACDLARLYGRNEVVSLMQANGAGGATNLQ", "partner": "B1 partner"}, "B3": {"name": "EF-hand domain-containing protein 1 (Homo sapiens), Q5JVL4 (parent)", "chain": "MVSNPVHGLPFLPGTSFKDSTKTAFHRSQTLSYRNGYAIVRRPTVGIGGDRLQFNQLSQAELDELASKAPVLTYGQPKQAPPADFIPAHVAFDKKVLKFDAYFQEDVPMSTEEQYRIRQVNIYYYLEDDSMSVIEPVVENSGILQGKLIKRQRLAKNDRGDHYHWKDLNRGINITIYGKTFRVVDCDQFTQVFLESQGIELNPPEKMALDPYTELRKQPLRKYVTPSDFDQLKQFLTFDKQVLRFYAIWDDTDSMYGECRTYIIHYYLMDDTVEIREVHERNDGRDPFPLLMNRQRVPKVLVENAKNFPQCVLEISDQEVLEWYTAKDFIVGKSLTILGRTFFIYDCDPFTRRYYKEKFGITDLPRIDVSKREPPPVKQELPPYNGFGLVEDSAQNCFALIPKAPKKDVIKMLVNDNKVLRYLAVLESPIPEDKDRRFVFSYFLATDMISIFEPPVRNSGIIGGKYLGRTKVVKPYSTVDNPVYYGPSDFFIGAVIEVFGHRFIILDTDEYVLKYMESNAAQYSPEALASIQNHVRKREAPAPEAESKQTEKDPGVQELEALIDTIQKQLKDHSCKDNIREAFQIYDKEASGYVDRDMFFKICESLNVPVDDSLVKELIRMCSHGEGKINYYNFVRAFSN", "partner": "B1 partner"}, "B4": {"name": "Keratin, type II cytoskeletal 2 epidermal (Homo sapiens), P35908 (parent)", "chain": "MSCQISCKSRGRGGGGGGFRGFSSGSAVVSGGSRRSTSSFSCLSRHGGGGGGFGGGGFGSRSLVGLGGTKSISISVAGGGGGFGAAGGFGGRGGGFGGGSSFGGGSGFSGGGFGGGGFGGGRFGGFGGPGGVGGLGGPGGFGPGGYPGGIHEVSVNQSLLQPLNVKVDPEIQNVKAQEREQIKTLNNKFASFIDKVRFLEQQNQVLQTKWELLQQMNVGTRPINLEPIFQGYIDSLKRYLDGLTAERTSQNSELNNMQDLVEDYKKKYEDEINKRTAAENDFVTLKKDVDNAYMIKVELQSKVDLLNQEIEFLKVLYDAEISQIHQSVTDTNVILSMDNSRNLDLDSIIAEVKAQYEEIAQRSKEEAEALYHSKYEELQVTVGRHGDSLKEIKIEISELNRVIQRLQGEIAHVKKQCKNVQDAIADAEQRGEHALKDARNKLNDLEEALQQAKEDLARLLRDYQELMNVKLALDVEIATYRKLLEGEECRMSGDLSSNVTVSVTSSTISSNVASKAAFGGSGGRGSSSGGGYSSGSSSYGSGGRQSGSRGGSGGGGSISGGGYGSGGGSGGRYGSGGGSKGGSISGGGYGSGGGKHSSGGGSRGGSSSGGGYGSGGGGSSSVKGSSGEAFGSSVTFSFR", "partner": "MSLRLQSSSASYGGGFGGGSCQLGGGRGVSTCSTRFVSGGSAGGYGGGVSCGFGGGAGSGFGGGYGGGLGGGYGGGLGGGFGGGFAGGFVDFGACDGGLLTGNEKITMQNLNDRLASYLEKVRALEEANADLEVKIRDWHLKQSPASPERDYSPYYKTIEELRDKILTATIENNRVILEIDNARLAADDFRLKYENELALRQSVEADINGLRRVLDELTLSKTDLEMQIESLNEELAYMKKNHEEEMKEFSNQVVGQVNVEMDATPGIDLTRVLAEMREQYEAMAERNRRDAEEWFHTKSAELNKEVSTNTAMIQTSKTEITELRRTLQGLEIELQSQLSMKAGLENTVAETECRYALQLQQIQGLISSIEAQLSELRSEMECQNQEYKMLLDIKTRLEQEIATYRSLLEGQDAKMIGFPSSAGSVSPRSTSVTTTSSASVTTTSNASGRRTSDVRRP"}, "B5": {"name": "Keratin, type II cytoskeletal 6A (Homo sapiens), P02538 (parent)", "chain": "MASTSTTIRSHSSSRRGFSANSARLPGVSRSGFSSVSVSRSRGSGGLGGACGGAGFGSRSLYGLGGSKRISIGGGSCAISGGYGSRAGGSYGFGGAGSGFGFGGGAGIGFGLGGGAGLAGGFGGPGFPVCPPGGIQEVTVNQSLLTPLNLQIDPTIQRVRAEEREQIKTLNNKFASFIDKVRFLEQQNKVLETKWTLLQEQGTKTVRQNLEPLFEQYINNLRRQLDSIVGERGRLDSELRGMQDLVEDFKNKYEDEINKRTAAENEFVTLKKDVDAAYMNKVELQAKADTLTDEINFLRALYDAELSQMQTHISDTSVVLSMDNNRNLDLDSIIAEVKAQYEEIAQRSRAEAESWYQTKYEELQVTAGRHGDDLRNTKQEIAEINRMIQRLRSEIDHVKKQCANLQAAIADAEQRGEMALKDAKNKLEGLEDALQKAKQDLARLLKEYQELMNVKLALDVEIATYRKLLEGEECRLNGEGVGQVNISVVQSTVSSGYGGASGVGSGLGLGGGSSYSYGSGLGVGGGFSSSSGRAIGGGLSSVGGGSSTIKYTTTSSSSRKSYKH", "partner": "B4 partner"}, "B6": {"name": "F-box only protein 7 (Homo sapiens), Q9Y3I1 (parent)", "chain": "MRLRVRLLKRTWPLEVPETEPTLGHLRSHLRQSLLCTWGYSSNTRFTITLNYKDPLTGDEETLASYGIVSGDLICLILQDDIPAPNIPSSTDSEHSSLQNNEQPSLATSSNQTSMQDEQPSDSFQGQAAQSGVWNDDSMLGPSQNFEAESIQDNAHMAEGTGFYPSEPMLCSESVEGQVPHSLETLYQSADCSDANDALIVLIHLLMLESGYIPQGTEAKALSMPEKWKLSGVYKLQYMHPLCEGSSATLTCVPLGNLIVVNATLKINNEIRSVKRLQLLPESFICKEKLGENVANIYKDLQKLSRLFKDQLVYPLLAFTRQALNLPDVFGLVVLPLELKLRIFRLLDVRSVLSLSAVCRDLFTASNDPLLWRFLYLRDFRDNTVRVQDTDWKELYRKRHIQRKESPKGRFVMLLPSSTHTIPFYPNPLHPRPFPSSRLPPGIIGGEYDQRPTLPYVGDPISSLIPGPGETPSQFPPLRPRFDPVGPLPGPNPILPGRGGPNDRFPFRPSRGRPTDGRLSFM", "partner": "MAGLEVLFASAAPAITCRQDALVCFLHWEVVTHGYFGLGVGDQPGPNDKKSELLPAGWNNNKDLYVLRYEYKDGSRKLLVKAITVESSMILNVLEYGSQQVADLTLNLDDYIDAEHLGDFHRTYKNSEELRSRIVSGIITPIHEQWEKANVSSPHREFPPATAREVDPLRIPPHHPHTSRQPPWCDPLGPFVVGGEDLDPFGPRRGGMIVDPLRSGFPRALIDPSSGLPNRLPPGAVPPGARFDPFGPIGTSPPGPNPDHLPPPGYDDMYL"}, "B7": {"name": "Emerin (Homo sapiens), P50402 (parent)", "chain": "MDNYADLSDTELTTLLRRYNIPHGPVVGSTRRLYEKKIFEYETQRRRLSPPSSSAASSYSFSDLNSTRGDADMYDLPKKEDALLYQSKGYNDDYYEESYFTTRTYGEPESAGPSRAVRQSVTSFPDADAFHHQVHDDDLLSSSEEECKDRERPMYGRDSAYQSITHYRPVSASRSSLDLSYYPTSSSTSFMSSSSSSSSWLTRRAIRPENRAPGAGLGQDRQVPLWGQLLLFLVFVIVLFFIYHFMQAEEGNPF", "partner": "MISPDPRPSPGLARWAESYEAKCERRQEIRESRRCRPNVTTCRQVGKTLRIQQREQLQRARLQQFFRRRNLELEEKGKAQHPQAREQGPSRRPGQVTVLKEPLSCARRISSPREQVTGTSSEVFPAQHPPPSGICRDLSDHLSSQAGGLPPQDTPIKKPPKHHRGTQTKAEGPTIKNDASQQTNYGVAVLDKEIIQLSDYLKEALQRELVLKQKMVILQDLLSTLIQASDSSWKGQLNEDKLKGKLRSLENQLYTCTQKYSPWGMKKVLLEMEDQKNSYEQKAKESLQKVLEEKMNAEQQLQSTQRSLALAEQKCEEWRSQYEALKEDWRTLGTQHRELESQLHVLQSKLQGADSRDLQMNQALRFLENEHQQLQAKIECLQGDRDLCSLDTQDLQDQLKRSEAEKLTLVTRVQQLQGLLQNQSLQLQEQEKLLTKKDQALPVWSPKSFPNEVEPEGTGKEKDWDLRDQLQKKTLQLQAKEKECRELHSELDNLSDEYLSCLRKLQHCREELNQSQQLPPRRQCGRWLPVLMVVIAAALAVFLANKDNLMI"}}, "data": [{"variants_of": "B1", "settings": "with REL", "values": [{"variant": "W94R", "effect of a mutation on the interaction": "disrupting interaction strength"}]}, {"variants_of": "B2", "settings": "with REL", "values": [{"variant": "V31L", "effect of a mutation on the interaction": "disrupting interaction strength"}]}, {"variants_of": "B3", "settings": "with REL", "values": [{"variant": "P77T", "effect of a mutation on the interaction": "disrupting interaction strength"}, {"variant": "R159W", "effect of a mutation on the interaction": "with no effect"}, {"variant": "R221H", "effect of a mutation on the interaction": "disrupting interaction strength"}, {"variant": "A394S", "effect of a mutation on the interaction": "disrupting interaction strength"}, {"variant": "M448T", "effect of a mutation on the interaction": "with no effect"}, {"variant": "T508R", "effect of a mutation on the interaction": "disrupting interaction strength"}]}, {"variants_of": "B4", "settings": "with KRT13, P13646", "values": [{"variant": "N186K", "effect of a mutation on the interaction": "with no effect"}, {"variant": "G219D", "effect of a mutation on the interaction": "with no effect"}, {"variant": "I477N", "effect of a mutation on the interaction": "disrupting interaction strength"}, {"variant": "L484P", "effect of a mutation on the interaction": "with no effect"}]}, {"variants_of": "B5", "settings": "with KRT13, P13646", "values": [{"variant": "A463P", "effect of a mutation on the interaction": "with no effect"}, {"variant": "I462S", "effect of a mutation on the interaction": "with no effect"}, {"variant": "F174V", "effect of a mutation on the interaction": "with no effect"}, {"variant": "N171K", "effect of a mutation on the interaction": "with no effect"}, {"variant": "T552S", "effect of a mutation on the interaction": "with no effect"}, {"variant": "N21S", "effect of a mutation on the interaction": "with no effect"}, {"variant": "V523F", "effect of a mutation on the interaction": "with no effect"}, {"variant": "F249L", "effect of a mutation on the interaction": "with no effect"}]}, {"variants_of": "B6", "settings": "with psmf1_human PSMF1, Q92530", "values": [{"variant": "T22M", "effect of a mutation on the interaction": "disrupting interaction strength"}]}, {"variants_of": "B7", "settings": "with TRAF3IP3, Q9Y228", "values": [{"variant": "S54F", "effect of a mutation on the interaction": "with no effect"}]}]}
